Assay results published in patent US20230027592A1.

Molecular target: Bovine serum albumin (bovine) (UniProt P02769)

Substance | BSA sequence coverage after digestion (nLC-MS/MS) (% BSA sequence coverage)
GluC protease (Mass Spectrometry Grade, Promega V1651) (from UniProt P0C1U8) (enzyme) | 93.1
Trypsin/LysC protease mix (Mass Spectrometry Grade, Promega V5072) (pool or library) | 91.3
